Series [1] concerns the target T1, rhRIG-I (236-925), CARD-less (Homo sapiens, UniProt O95786 236-925).
T1 sequence: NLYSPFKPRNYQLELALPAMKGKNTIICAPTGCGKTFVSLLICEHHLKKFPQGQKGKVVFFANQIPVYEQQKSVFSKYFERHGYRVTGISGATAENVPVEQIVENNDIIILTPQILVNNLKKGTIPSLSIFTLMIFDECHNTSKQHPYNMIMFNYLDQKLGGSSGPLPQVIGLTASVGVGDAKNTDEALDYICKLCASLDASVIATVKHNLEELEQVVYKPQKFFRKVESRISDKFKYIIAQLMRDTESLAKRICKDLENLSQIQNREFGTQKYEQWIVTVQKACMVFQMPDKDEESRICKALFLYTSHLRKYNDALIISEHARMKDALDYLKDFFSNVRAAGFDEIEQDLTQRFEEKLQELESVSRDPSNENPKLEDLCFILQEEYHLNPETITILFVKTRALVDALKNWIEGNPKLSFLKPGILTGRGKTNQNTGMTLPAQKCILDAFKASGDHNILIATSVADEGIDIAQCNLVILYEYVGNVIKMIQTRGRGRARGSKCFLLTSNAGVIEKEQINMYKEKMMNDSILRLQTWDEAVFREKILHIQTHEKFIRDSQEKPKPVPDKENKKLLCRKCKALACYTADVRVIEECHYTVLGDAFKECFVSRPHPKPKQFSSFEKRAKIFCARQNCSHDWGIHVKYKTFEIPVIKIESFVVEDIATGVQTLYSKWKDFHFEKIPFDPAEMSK
As to the kind of experiment: fluorescence anisotropy; no nucleotide; 4 mM MgCl2; affinity similar to RNA, Kd only in figure; FP: 20 mM Hepes pH 7.5, 150 mM NaCl, 2 mM TCEP, 4 mM MgCl2, 5% glycerol, 25 C, 2.5 nM labeled oligo; EMSA: 30 min on ice, 6% native gel, 0.5x TBE. Particulars: protein: recombinant; tags: N-terminal His-tag, removed by TEV; label: 5' FAM; 25-mer described as palindromic; partly self-complementary.

Series [2] has as its target T1, rhRIG-I (236-925), CARD-less. Kind of series: EMSA; ODN stock 2.5 uM, protein 0-32 uM, on ice; FP: 20 mM Hepes pH 7.5, 150 mM NaCl, 2 mM TCEP, 4 mM MgCl2, 5% glycerol, 25 C, 2.5 nM labeled oligo; EMSA: 30 min on ice, 6% native gel, 0.5x TBE. Particulars: protein: recombinant; tags: N-terminal His-tag, removed by TEV; 25-mer described as palindromic; partly self-complementary.

Series [3] has the same target. As to the kind of experiment: fluorescence anisotropy; no nucleotide; 4 mM MgCl2; Kd only in figure; FP: 20 mM Hepes pH 7.5, 150 mM NaCl, 2 mM TCEP, 4 mM MgCl2, 5% glycerol, 25 C, 2.5 nM labeled oligo; EMSA: 30 min on ice, 6% native gel, 0.5x TBE. Particulars: protein: recombinant; tags: N-terminal His-tag, removed by TEV; label: 5' FAM on strand 1; blunt. (In general: Fluorescence polarisation rises when a labelled molecule tumbles more slowly, as on binding a larger partner.)

For TCGTCGTCGTTCGAACGACGTTGAT (ssDNA, complete phosphorothioate backbone) [ODN M362, FAM], the binding result in series [1] was “binds”.

For TCGTCGTCGTTCGAACGACGTTGAT (ssDNA, complete phosphorothioate backbone) [ODN M362, biotinylated], the binding result in series [2] was “binds”.

B1: 12-mer 5'ppp dsRNA (dsRNA)
RNA 1: CAUGUGGAGCCC
RNA 2: GGGCUCCACAUG
modifications: 5' triphosphate on strand 2
Take B1: the binding result in series [3] is “binds”.

Source of the values: paper PMC11601584, “The RNA receptor RIG-I binding synthetic oligodeoxynucleotide promotes pneumonia survival”.
